Assay results taken from patent US20150315267A1.

Molecular target: soluble, freshly prepared monomeric Aβ(1-40) (UniProt P05067)
Experiment: capture ELISA, antibody immobilized, soluble monomeric Aβ(1-40) in solution

EC50: 1 nM
Substance: 3D6 (antibody)
